# Measured values: patent US5747447
# T1: vitronectin receptor (M21 melanoma cell attachment assay) (Homo sapiens (Human)), P06756
# T1 chain 1: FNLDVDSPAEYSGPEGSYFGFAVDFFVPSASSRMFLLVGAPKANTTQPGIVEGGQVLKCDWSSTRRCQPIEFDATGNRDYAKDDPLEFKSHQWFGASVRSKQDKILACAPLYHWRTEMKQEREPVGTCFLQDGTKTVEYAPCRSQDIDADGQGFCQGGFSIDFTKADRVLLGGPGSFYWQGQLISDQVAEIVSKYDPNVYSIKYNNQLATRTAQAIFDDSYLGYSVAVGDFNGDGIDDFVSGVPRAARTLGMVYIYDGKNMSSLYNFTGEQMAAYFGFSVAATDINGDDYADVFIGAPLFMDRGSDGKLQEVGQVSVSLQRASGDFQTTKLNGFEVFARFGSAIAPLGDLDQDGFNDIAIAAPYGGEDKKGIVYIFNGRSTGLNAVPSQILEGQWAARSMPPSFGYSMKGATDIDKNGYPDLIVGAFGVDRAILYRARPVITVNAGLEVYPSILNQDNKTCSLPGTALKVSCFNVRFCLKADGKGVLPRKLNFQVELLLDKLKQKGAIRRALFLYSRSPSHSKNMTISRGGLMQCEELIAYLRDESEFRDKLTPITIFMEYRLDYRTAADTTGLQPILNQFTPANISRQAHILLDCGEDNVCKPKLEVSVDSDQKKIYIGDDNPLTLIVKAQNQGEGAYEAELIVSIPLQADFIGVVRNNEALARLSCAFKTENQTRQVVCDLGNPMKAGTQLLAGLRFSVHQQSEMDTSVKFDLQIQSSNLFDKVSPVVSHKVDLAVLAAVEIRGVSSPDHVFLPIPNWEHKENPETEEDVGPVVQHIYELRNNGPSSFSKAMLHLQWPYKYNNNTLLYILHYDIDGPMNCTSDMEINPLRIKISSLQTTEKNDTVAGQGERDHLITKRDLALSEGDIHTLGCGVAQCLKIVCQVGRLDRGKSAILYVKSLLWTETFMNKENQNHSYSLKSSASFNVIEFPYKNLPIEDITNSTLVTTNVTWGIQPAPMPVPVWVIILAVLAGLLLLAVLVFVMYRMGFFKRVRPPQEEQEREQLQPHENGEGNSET
# T1 chain 2: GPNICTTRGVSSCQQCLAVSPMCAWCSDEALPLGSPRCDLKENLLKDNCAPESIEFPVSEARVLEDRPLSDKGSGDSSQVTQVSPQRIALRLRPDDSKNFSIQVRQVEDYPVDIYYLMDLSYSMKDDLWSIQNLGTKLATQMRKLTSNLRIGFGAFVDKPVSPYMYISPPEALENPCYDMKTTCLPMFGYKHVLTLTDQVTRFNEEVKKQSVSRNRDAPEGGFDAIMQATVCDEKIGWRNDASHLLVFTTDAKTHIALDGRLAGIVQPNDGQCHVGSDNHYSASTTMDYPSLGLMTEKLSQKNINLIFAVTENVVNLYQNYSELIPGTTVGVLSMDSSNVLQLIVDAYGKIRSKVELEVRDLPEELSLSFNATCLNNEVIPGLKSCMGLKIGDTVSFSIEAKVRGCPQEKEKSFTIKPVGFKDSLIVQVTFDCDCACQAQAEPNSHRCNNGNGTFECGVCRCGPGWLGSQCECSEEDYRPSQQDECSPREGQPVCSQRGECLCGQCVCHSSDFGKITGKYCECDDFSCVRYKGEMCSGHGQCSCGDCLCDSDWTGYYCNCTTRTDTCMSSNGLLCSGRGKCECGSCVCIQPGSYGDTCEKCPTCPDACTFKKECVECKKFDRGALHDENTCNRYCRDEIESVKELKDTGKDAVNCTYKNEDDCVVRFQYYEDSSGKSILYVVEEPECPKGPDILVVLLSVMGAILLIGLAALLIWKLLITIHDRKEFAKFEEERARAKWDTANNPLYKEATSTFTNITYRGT
# How the values were obtained:
# [1] = target: T1, vitronectin receptor (M21 melanoma cell …)
# [2] = target: GP IIb-IIIa on human platelets (human), P08514
Binder,M21 cell attachment to vitronectin [1] [µM],"Appr, IC50 (uM): inhibition of ADP-induced human platelet aggregation [2] [µM]"
GCGKGDWPCA (modifications not checked) [analog #3],> 60,–
GCKGDWPCA (modifications not checked) [analog #4],–,5
CGKGDWPC (modifications not checked) [analog #5],–,5
